Residue numbers refer to the chain shown, from its start.
B1: 1E7 (VHH)
VHH: EVQLVESGGGLVQAGGSLRLSCAASGRTFSNYVMGWFRQAPGKEREFVAAISWSGVTTYHYSADSVKGRFTTSRDNDRNTAHLQMNSLKPEDTAVYYCAARGRTGSDPRKGDDYDYWGQGTQVTVSS
notes: Carries a myc tag (detected with anti-myc)
B2: 4B11 (VHH)
VHH: EVQLVESGGGLVQPGGSLRLSCAASGFTLDYYAIGWFRQAPGKEREGVSCISSSDMSDGITYYADSVKGRFTSSRDNVKNTVYLQMNSLKPEDTAVYYCATTFGDACTVVAGIPDQADFDSWGQGTQVTVSS
notes: Carries myc and His tags
B3: 1D2 (VHH)
VHH: EVQLVESGGGLVQPGGSLRLSCAASGFTLDYYAIGWFRRAPGKEREGVSCTSSSDGSTYYADSVKGRFTISRDNAKNTVYLQMNSLKPEDTAVYYCATTFGDACTVVAGIPDQYDFGSWGQGTQVTVSS
notes: Carries myc and His tags
B4: 4D9 (VHH)
VHH: B3 VHH with A33D, R39Q
B5: 1D7 (VHH)
VHH: EVQLVESGGGLVQSGGSLRLSCAASGRAFNYYAMGWFRQAPGKERELVAVINWSGGTTSYADSVKGRFTISRSNAKNTVYLQMSSLKPEDTAVYYCAADSIYRTSKDYNYWGQGTQVTVSS
notes: Carries myc and His tags (detected with anti-myc, pulled down on talon beads)
B6: 4A2 (VHH)
VHH: EVQLVESGGGLVQAGGSLRLSCAASGLSFSSYAMGWFRQAPGKEREFVAAIRRREGNSYYADSVKGRFTISRDSAKNTVYLQMNSLKPEDTALYSCAATAPHYSGSFAYAGGYDYWGQGTQVTVSS
notes: Tested as periplasmic extract
B7: 4A6 (VHH)
VHH: EVQLVESGGGLVQPGGSLRLSCAASPFTLDYYAIGWFRQAPGKEREGVSCSTSHGKTYHADSVKGRFTISRDNAKNTVYLQMNSLKPEDTAVYYCAAGACMGGSGYEADFGSWGQGTQVTVSS
notes: Tested as periplasmic extract
B8: 4B1 (VHH)
VHH: B7 VHH with A23V, S25A, P26G, S51I, H54D, K56R, H59Y, N73M, N76K, T77M
notes: Tested as periplasmic extract
B9: 4D4 (VHH)
VHH: EVQLVESGGGLVQAGDSLRLSCAASGRTFSPYVMGWFRRAPGKEREFVGGINWSGSNTWYTDSVKGRFTISRDNVKNMVYLQMNSLKPEDTAVYYCAAGSGVGMYRYERQYDYWGQGTQVTVSS
notes: Tested as periplasmic extract
B10: 4B8 (VHH)
VHH: EVQLVESGGGLVQAGGSLRLSCAASGGTYSGNAMAWFRQAPGKEREFVAGIDWSSENTRYIDSVKGRFTISRDNAKNTMYLQMNSLKPEDTAVYYCAAGTSWGALASRLEAAYSSWGQGTQVTVSS
notes: Tested as periplasmic extract
B11: 4B6 (VHH)
VHH: B10 VHH with E1K, A14V, A23V, G27R, S30G, I61T, A111N, S115A
notes: Tested as periplasmic extract
B12: 4B5 (VHH)
VHH: B10 VHH with G16D, G27R, G31R, N77S
notes: Tested as periplasmic extract
B13: 4C8 (VHH)
VHH: EVQLVESGGGLVQAGDSLRLSCAASGRTYTPYVMGWFRRAPGKEREFVGAVSWSGTNTWYTDSVKGRFTISRDNAKNTVYLQMNSLKPEDTAVYYCAAGDGVGIYRYEHQYDYWGQGTQVTVSS
notes: Tested as periplasmic extract
B14: 4B10 (VHH)
VHH: EVQLVESGGGLVQAGDSLRLSCAASGRTFSSYAMGWFRQAPGTERQFVARITGKGDSTDYADSVRGRFTISRDNAKNTVYLQMNSLKPEDTAVYYCAADAFNSLLQAGRAEYWGQGTQVTVSS
notes: Tested as periplasmic extract
B15: 4D3 (VHH)
VHH: EVQLVKSGGGLVQPGGSLRLSCAASGFTFSHYQMSWVRQAPGKDVEWVSSISMLGGGTTYADSVKGRFTISRDNAKSTLVLQMNNLKVEDTAVYYCARGFSGNYYRADLGQGTQVTVSS
notes: Tested as periplasmic extract
B16: 4C9 (VHH)
VHH: EVQLVESGGGLVQAGDSLRLSCTASERPFSTYVMGWFRRAPGKEREFVGGITWSGINAWYTDSVLGRFTISSDNAKNTVYLQMNSLKPEDTAVYYCAAASGVGRYRYELQYDYWGQGTQVTVSS
notes: Tested as periplasmic extract
B17: 4C4 (VHH)
VHH: EVQLVESGGGLVQAGDSLRLSCAASGRPFMSYVMGWFRRAPGKEREFVGGINWGSGNTWYTDSVLGRFTISRDNAKNTVYLQMNSLKPEDTAVYYCATAAGVGYYRYERQYDYWGQGTQVTVSS
notes: Tested as periplasmic extract
B18: 4C5 (VHH)
VHH: B17 VHH with M30S, S31A, G54N, G56A, R72K, T98A, A100G
notes: Tested as periplasmic extract
B19: 4D7 (VHH)
VHH: B17 VHH with M30S, G54N, T61S, Y80D, A100S
notes: Tested as periplasmic extract
B20: 4D10 (VHH)
VHH: EVQLVESGGGLVQAGDSLRLSCTASERPFMSYVMGWFRRAPGKDREFVGAITWSGINTWYSDSVLGRFTISRDNAKNTVYLQMNSLKPEDTAVYYCAVADGVGLYRYERQYDYWGQGTQVTVSS
notes: Tested as periplasmic extract
B21: 4A9 (VHH)
VHH: EVQLVESGGGLVQAGGSLRLSCEASGFTLDYSGVGWFRQAPGKERELVSCISRGGDRAGYANSVKGRFTMSRDNAKNILYLQMNSLKPEDTAVYYCAATHSGSGCYDGAIDYWGKGTLVTVSS
notes: Tested as periplasmic extract
B22: 4D5 (VHH)
VHH: EVQLVESGGGLVQAGGSLRLSCAASGLSFSKYAMGWFRQAPGKQREYVAVISSSDTTYYTNSAKGRFTISRDNAENTVYLQMNSLKPEDTAVYFCAADSYVTALQTLTQISYWGQGTQVTVSS
notes: Tested as periplasmic extract
B23: 4C11 (albumin binder) (VHH)
VHH: B22 VHH with K31R, Y100F, S111N
notes: Tested as periplasmic extract
B24: 4C3 (VHH)
VHH: EVQLVESGGGLVQAGGSLRLSCAASGRTFSSYAMAWFRQAPGEEREFVATISVSGGYTYYADSVKGRFTISRDNAKNTVYLQMNTLKPEDTAVYYCAAGDSSSWLEHMYDYWGQGTQVTVSS
notes: Tested as periplasmic extract
B25: 4B7 (VHH)
VHH: EVQLVESGGGLVQAGGSLRLSCAASGFTFDDYAIGWFRQAPGKEREGVSCISSRDGITYYADSVKGRFTISSDNAKNTVYLQMNSLKPEDTAVYYCAADLVGSFPCPVAAYDYWGQGTQVTVSS
notes: Carries myc and His tags

target: T1, ectodomain of human pIgR (R&D Systems Cat #2717-PG) (human, UniProt P01833 19-638); experiment: competition ELISA, dilution series of purified Nanobody against 1 ug/ml IgA on immobilised pIgR ectodomain
T1 construct: extracellular domain; Immobilised on Maxisorp plates at 5 ug/ml; also called pIgR ectodomain
T1 sequence (P01833 19-638): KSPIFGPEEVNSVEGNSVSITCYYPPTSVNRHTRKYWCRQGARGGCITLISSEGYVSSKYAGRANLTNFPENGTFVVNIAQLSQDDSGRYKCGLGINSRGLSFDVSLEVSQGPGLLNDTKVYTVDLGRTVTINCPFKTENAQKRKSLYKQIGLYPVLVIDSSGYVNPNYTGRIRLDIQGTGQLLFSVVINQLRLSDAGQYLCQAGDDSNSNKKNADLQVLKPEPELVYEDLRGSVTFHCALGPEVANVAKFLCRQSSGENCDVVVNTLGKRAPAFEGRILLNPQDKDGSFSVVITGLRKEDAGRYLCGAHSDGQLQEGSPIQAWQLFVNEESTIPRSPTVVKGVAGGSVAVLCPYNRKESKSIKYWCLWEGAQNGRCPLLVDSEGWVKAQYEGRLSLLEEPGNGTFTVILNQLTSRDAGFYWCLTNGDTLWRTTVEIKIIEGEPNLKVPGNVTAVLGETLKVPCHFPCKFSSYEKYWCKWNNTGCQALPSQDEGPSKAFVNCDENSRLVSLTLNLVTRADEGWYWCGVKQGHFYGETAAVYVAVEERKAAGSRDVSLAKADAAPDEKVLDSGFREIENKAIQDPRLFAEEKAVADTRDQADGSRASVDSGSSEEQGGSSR

binding result	Binder
binds	B1
binds	B2
binds	B3
binds	B4
binds	B5

target: T2, human pIgR overexpressed in MDCK cells (human, UniProt P01833 19-764); experiment: immunofluorescence on MDCK cells overexpressing human pIgR, 3 uM purified Nanobody at 4C, anti-myc detection
T2 construct: whole, on cells; also called hpIgR; human polymeric immunoglobulin receptor
T2 sequence (P01833 19-764): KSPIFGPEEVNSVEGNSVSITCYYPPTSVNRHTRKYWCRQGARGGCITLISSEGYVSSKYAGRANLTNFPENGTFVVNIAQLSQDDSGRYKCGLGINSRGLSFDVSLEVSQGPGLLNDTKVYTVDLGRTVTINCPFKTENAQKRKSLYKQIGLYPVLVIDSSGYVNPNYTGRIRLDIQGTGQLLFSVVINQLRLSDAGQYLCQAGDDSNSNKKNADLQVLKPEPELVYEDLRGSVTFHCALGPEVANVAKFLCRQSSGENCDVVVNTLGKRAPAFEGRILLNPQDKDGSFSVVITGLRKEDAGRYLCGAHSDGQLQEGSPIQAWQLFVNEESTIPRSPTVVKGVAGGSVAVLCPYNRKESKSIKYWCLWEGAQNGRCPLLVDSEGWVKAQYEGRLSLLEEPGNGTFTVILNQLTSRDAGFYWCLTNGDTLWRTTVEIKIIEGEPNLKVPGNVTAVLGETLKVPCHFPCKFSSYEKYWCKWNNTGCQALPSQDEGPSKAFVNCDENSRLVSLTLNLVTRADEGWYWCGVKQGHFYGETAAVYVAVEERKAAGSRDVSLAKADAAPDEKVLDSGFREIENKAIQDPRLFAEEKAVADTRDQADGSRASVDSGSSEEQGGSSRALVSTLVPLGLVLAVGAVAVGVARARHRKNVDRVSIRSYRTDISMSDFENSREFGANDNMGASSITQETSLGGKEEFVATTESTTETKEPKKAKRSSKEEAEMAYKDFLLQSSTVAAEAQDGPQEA

binding result	Binder
binds	B1
binds	B2
binds	B3

target: T3, human serum albumin (human, UniProt P02768 25-609); experiment: SPR (Biacore), HSA amine-coupled on CM5, pH 5
T3 construct: also called HSA

koff [s⁻¹]	Binder
0.0227	B6
0.00999	B7
0.00773	B8
0.0166	B9
0.0018	B10
0.00119	B11
0.00403	B12
0.00209	B13
0.0434	B14
0.0137	B15
0.00171	B16
0.00121	B17
0.00132	B18
0.00158	B19
0.00341	B20
0.00701	B21
0.0263	B22
0.0312	B23
0.00375	B24

target: T3, human serum albumin; experiment: SPR (Biacore), HSA amine-coupled on CM5, pH 7

koff [s⁻¹]	Binder
0.00642	B6
0.00173	B7
0.00875	B8
0.00602	B9
0.000741	B10
0.000368	B11
0.00174	B12
0.000624	B13
0.0499	B14
0.00565	B15
0.000441	B16
0.000499	B17
0.000541	B18
0.000653	B19
0.000523	B20
0.013	B21
0.0204	B22
0.0263	B23
0.00112	B24

target: T2, human pIgR overexpressed in MDCK cells; experiment: immunoprecipitation from cell lysates with His-tagged nanobodies on talon beads, blot with a-hSC

binding result	Binder
binds	B25
binds	B5

target: T3, human serum albumin; experiment: SPR (Biacore), ratio of the off rates at the two pH

Ratio pH 7/pH 5	Binder
3.54	B6
5.77	B7
0.88	B8
2.76	B9
2.43	B10
3.23	B11
2.32	B12
3.35	B13
0.87	B14
2.42	B15
3.88	B16
2.42	B17
2.44	B18
2.42	B19
6.52	B20
0.54	B21
1.29	B22
1.19	B23
3.35	B24
